Results published in patent US20240116985A1, “STAPLED PEPTIDES AND METHODS THEREOF” (priority 2020, published 2024).
Starred links: 1 amine or outer side, 2 acyl side, 3 side chain; linkers in the order of their positions; H or OH if unused. Positions of bridges follow the written chain, without caps; N, C: chain ends. Non-standard residues stand in square brackets, D forms with d. Primed or numbered codes have the meaning given here. B5(15) = 2-amino-2-(pent-4-en-1-yl)hept-6-enoic acid (2,2-bis(4-pentenyl)glycine), stitching residue bearing two staples, C=CCCCC(CCCC=C)(N[*:1])C(=O)[*:2]; PyrS2″ = (S)-3-amino-1-((pent-4-en-1-yloxy)carbonyl)pyrrolidine-3-carboxylic acid (stapling residue), C=CCCCOC(=O)N1CC[C@@](N[*:1])(C(=O)[*:2])C1; B5(18) = 2,2-bis(4-pentenyl)glycine (2-amino-2-(pent-4-en-1-yl)hept-6-enoic acid), stitching residue, C=CCCCC(CCCC=C)(N[*:1])C(=O)[*:2]; B5(23) = 2-amino-2-(pent-4-en-1-yl)hept-6-enoic acid (2,2-bis(4-pentenyl)glycine), stitching residue, C=CCCCC(CCCC=C)(N[*:1])C(=O)[*:2]; B5(4) = 2,2-bis(4-pentenyl)glycine = 2-amino-2-(pent-4-en-1-yl)hept-6-enoic acid (stitching residue), C=CCCCC(CCCC=C)(N[*:1])C(=O)[*:2]; B5(5) = 2,2-bis(4-pentenyl)glycine, 2-amino-2-(pent-4-en-1-yl)hept-6-enoic acid (stitching residue), C=CCCCC(CCCC=C)(N[*:1])C(=O)[*:2]; TfeGA = (S)-2-amino-3-((carboxymethyl)(2,2,2-trifluoroethyl)amino)propanoic acid, O=C([C@H](CN(CC(=O)[*:3])CC(F)(F)F)N[*:1])[*:2]; PyrS2 = (S)-3-amino-1-((pent-4-en-1-yloxy)carbonyl)pyrrolidine-3-carboxylic acid, C=CCCCOC(=O)N1CC[C@@](N[*:1])(C(=O)[*:2])C1; B5(25) = 2-amino-2-(pent-4-en-1-yl)hept-6-enoic acid (stitching residue), C=CCCCC(CCCC=C)(N[*:1])C(=O)[*:2]; EtGA = (S)-2-amino-3-((carboxymethyl)(ethyl)amino)propanoic acid, CCN(CC(=O)[*:3])C[C@H](N[*:1])C(=O)[*:2]; B5(3) = 2,2-bis(4-pentenyl)glycine (stitching residue), C=CCCCC(CCCC=C)(N[*:1])C(=O)[*:2]; B5 = 2-amino-2-(pent-4-en-1-yl)hept-6-enoic acid, C=CCCCC(CCCC=C)(N[*:1])C(=O)[*:2]; Phe(3-COOH) = N[C@@H](Cc1cccc(C(=O)O)c1)C(=O)O; Phe(2-Cl) = N[C@@H](Cc1ccccc1Cl)C(=O)O; Bta = N[C@@H](Cc1csc2ccccc12)C(=O)O; αAllylPro = C=CC[C@@]1(C(=O)O)CCCN1; tBuAla = CC(C)(C)C[C@H](N)C(=O)O; 2Thi = N[C@@H](Cc1cccs1)C(=O)O; 3Thi = N[C@@H](Cc1ccsc1)C(=O)O; S8 = C=CCCCCCC[C@](C)(N)C(=O)O; hLeu = CC(C)CC[C@H](N)C(=O)O; hSer = N[C@@H](CCO)C(=O)O

B1: I-967 (peptide)
peptide: Ac-[αAllylPro]D[tBuAla][B5(25)]D[EtGA]AAFS[PyrS2″][3Thi][Bta]Q-NH2
modifications: staple 1-4, 4-11; not fully specified; printed as Ac-PL3-Asp-Npg-B5-Asp-EtGA-Ala-Ala-Phe-Ser-PyrS2-3Thi-BztA-Gln-NH2
B2: I-969 (peptide)
peptide: Ac-[αAllylPro]D[tBuAla][B5(25)]D[EtGA]AAFT[PyrS2″][3Thi][Bta]Q-NH2
modifications: staple 1-4, 4-11; not fully specified; printed as Ac-PL3-Asp-Npg-B5-Asp-EtGA-Ala-Ala-Phe-Thr-PyrS2-3Thi-BztA-Gln-NH2
B3: I-1537 (peptide)
peptide: Ac-[αAllylPro]D[hLeu][B5(15)]DEAAF[hSer][S8]F[Bta]Q-NH2
modifications: staple 1-4, 4-11; not fully specified; printed as Ac-PL3-Asp-Hleu-B5-Asp-Glu-Ala-Ala-Phe-Hse-S8-Phe-BztA-Gln-NH2
B4: I-1538 (peptide)
peptide: Ac-[αAllylPro]D[hLeu][B5(15)]DEAAF[hSer][S8]F[Bta]Q-NH2
modifications: staple 1-4, 4-11; not fully specified; printed as Ac-PL3-Asp-Hleu-B5-Asp-Glu-Ala-Ala-Phe-Hse-S8-Phe-BztA-Gln-NH2

molecular target: full-length beta-Catenin (Uniprot ID P35222) (Homo sapiens (Human)) (UniProt P35222); experiment: cell-based or functional assay
Target sequence in this assay (P35222 2-781 limits assumed): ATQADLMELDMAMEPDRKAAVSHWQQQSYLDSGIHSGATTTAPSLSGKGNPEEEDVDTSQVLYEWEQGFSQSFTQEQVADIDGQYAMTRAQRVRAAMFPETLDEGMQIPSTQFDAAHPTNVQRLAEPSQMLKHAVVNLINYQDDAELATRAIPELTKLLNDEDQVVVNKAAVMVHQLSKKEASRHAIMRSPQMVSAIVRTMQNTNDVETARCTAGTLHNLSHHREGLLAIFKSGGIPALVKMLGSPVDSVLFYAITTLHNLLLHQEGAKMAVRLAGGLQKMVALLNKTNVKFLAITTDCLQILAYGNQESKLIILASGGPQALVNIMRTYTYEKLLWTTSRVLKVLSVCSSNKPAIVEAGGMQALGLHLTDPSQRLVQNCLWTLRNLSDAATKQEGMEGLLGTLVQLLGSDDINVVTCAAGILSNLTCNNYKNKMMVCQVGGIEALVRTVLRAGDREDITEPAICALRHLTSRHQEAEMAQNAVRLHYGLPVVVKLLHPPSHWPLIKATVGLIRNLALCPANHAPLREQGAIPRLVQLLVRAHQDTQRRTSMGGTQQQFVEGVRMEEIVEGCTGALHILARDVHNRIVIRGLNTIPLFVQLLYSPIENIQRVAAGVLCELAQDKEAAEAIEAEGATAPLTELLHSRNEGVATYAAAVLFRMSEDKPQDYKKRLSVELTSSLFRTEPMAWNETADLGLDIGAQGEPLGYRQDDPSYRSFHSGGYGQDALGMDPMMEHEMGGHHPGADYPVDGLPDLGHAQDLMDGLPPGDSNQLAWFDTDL

Ac-[αAllylPro]DI[B5(4)]DEAA[2Thi]Q[S8]F[Bta]Q-NH2 (staple 1-4, 4-11) [I-485] gave a NanoBRET Abs IC50 of 11300 nM.

molecular target: full-length beta-Catenin (Uniprot ID P35222) (Homo sapiens (Human)) (UniProt P35222); experiment: fluorescence polarization competition vs 5FAM-TCF4(10-53) on full-length beta-catenin
Target sequence in this assay (P35222 2-781 limits assumed): as above

In order of falling IC50:
1. Ac-[αAllylPro]D[tBuAla][B5(25)]D[EtGA]AAFT[PyrS2″][3Thi][Bta]Q-NH2 (staple 1-4, 4-11; also: earlier-eluting HPLC staple isomer) [I-968]  2980 nM
2. B2  2320 nM
3. Ac-[αAllylPro]D[tBuAla][B5(4)]D[EtGA]AAFS[PyrS2″][3Thi][Bta]S-NH2 (staple 1-4, 4-11; also: later eluting HPLC staple isomer) [I-975]  2240 nM
4. Ac-[αAllylPro]D[tBuAla][B5(25)]D[EtGA]AAFS[PyrS2″][3Thi][Bta]Q-NH2 (staple 1-4, 4-11; also: earlier-eluting HPLC staple isomer) [I-966]  2020 nM
5. Ac-[αAllylPro]D[tBuAla][B5(4)]D[EtGA]AAFS[PyrS2″][3Thi][Bta]S-NH2 (staple 1-4, 4-11; also: earlier eluting HPLC staple isomer) [I-974]  1780 nM
6. B1  1740 nM

molecular target: full-length beta-Catenin (Uniprot ID P35222) (Homo sapiens (Human)) (UniProt P35222); experiment: fluorescence polarization competition; displaces 5FAM-TCF4(10-53) from full-length beta-catenin
Target sequence in this assay (P35222 2-781 limits assumed): as above

In order of falling IC50:
1. Ac-[αAllylPro]D[tBuAla][B5(23)]NNAAFN[PyrS2][3Thi][Bta]Q-NH2 (staple 1-4, 4-11) [I-1555]  180 nM
2. Ac-[αAllylPro]D[hLeu][B5(15)]DEAAFL[S8]F[Bta]Q-NH2 (staple 1-4, 4-11) [I-1536]  42 nM
3. B3  31 nM
4. B4  21 nM

In order of falling EC50:
1. Ac-[αAllylPro]D[tBuAla][B5(5)][3Thi][TfeGA]AAFN[PyrS2″]D[Bta]Q-NH2 (staple 1-4, 4-11) [I-1001]  5530 nM
2. Ac-[αAllylPro]D[tBuAla][B5(5)]D[TfeGA]AIFN[PyrS2″][Phe(2-Cl)][Bta]Q-NH2 (staple 1-4, 4-11) [I-1005]  42 nM
3. Ac-[αAllylPro]D[tBuAla][B5(5)]D[TfeGA]AFFN[PyrS2″][Phe(2-Cl)][Bta]Q-NH2 (staple 1-4, 4-11) [I-1003]  38 nM
4. Ac-[αAllylPro]D[tBuAla][B5(18)]DNAAFS[PyrS2″][Phe(2-Cl)][Bta]Q-NH2 (staple 1-4, 4-11) [I-1018]  26 nM
5. Ac-[αAllylPro]D[tBuAla][B5(18)]DNAAFT[PyrS2″][Phe(2-Cl)][Bta]Q-NH2 (staple 1-4, 4-11) [I-1014]  19 nM
6. Ac-[αAllylPro]D[tBuAla][B5(18)]DDAAFT[PyrS2″][Phe(2-Cl)][Bta]Q-NH2 (staple 1-4, 4-11) [I-1013]  8 nM
7. Ac-[αAllylPro]D[tBuAla][B5(18)]D[TfeGA]AKFN[PyrS2″][Phe(2-Cl)][Bta]Q-NH2 (staple 1-4, 4-11) [I-1006]  5 nM

molecular target: full-length beta-Catenin (Uniprot ID P35222) (Homo sapiens (Human)) (UniProt P35222); experiment: fluorescence polarization competition; full-length beta-catenin, competitor 5FAM-TCF4(10-53) probe
Target sequence in this assay (P35222 whole entry, one chain of several): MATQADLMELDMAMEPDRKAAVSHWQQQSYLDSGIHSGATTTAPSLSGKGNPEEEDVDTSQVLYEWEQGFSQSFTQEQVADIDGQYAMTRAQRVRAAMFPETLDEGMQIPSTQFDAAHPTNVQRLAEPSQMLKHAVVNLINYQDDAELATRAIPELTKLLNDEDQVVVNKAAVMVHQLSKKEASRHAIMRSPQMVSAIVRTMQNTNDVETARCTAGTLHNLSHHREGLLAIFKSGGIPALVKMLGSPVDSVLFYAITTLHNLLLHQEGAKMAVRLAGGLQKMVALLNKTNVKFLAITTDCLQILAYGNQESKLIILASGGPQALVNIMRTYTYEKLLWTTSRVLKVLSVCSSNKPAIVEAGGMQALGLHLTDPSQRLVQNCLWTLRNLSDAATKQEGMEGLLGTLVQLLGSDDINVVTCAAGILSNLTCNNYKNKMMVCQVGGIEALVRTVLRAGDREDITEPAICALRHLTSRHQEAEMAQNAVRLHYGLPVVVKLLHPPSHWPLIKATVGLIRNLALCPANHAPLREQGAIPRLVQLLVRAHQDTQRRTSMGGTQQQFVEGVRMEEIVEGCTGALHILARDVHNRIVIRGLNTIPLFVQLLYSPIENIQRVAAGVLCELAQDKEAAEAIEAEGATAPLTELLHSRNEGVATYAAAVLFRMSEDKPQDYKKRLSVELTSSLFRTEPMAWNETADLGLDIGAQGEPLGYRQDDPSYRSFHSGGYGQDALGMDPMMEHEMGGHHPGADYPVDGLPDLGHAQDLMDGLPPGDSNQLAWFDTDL

With Ac-[αAllylPro]D[tBuAla][B5(4)]DLAAFL[PyrS2″][3Thi][Bta]Q-NH2 (staple 1-4, 4-11) [I-1444] the IC50 was 6560 nM.

molecular target: full-length beta-Catenin (Uniprot ID P35222) (Homo sapiens (Human)) (UniProt P35222); experiment: fluorescence polarization competition; full-length beta-catenin, competitor probe 5FAM-TCF4(10-53)
Target sequence in this assay (P35222 2-781 limits assumed): as the sequence (P35222 2-781 limits assumed) above

In order of rising IC50:
1. Ac-[αAllylPro]D[tBuAla][B5(4)]D[Phe(3-COOH)]AAFS[PyrS2″][3Thi][Bta]Q-NH2 (staple 1-4, 4-11; also: earlier eluting HPLC staple isomer) [I-978]  112 nM
2. Ac-[αAllylPro]D[tBuAla][B5(4)]D[Phe(3-COOH)]AAFT[PyrS2″][3Thi][Bta]Q-NH2 (staple 1-4, 4-11; also: earlier eluting HPLC staple isomer) [I-980]  221 nM
3. Ac-[αAllylPro]D[tBuAla][B5(4)]D[Phe(3-COOH)]AAFS[PyrS2″][3Thi][Bta]Q-NH2 (staple 1-4, 4-11; also: later eluting HPLC staple isomer) [I-979]  240 nM
4. Ac-[αAllylPro]D[tBuAla][B5(4)]D[Phe(3-COOH)]AAFT[PyrS2″][3Thi][Bta]Q-NH2 (staple 1-4, 4-11; also: later eluting HPLC staple isomer) [I-981]  374 nM

molecular target: full-length beta-Catenin (Uniprot ID P35222) (Homo sapiens (Human)) (UniProt P35222); experiment: fluorescence polarization competition; 10 nM full-length beta-catenin + 10 nM 5FAM-TCF4(10-53) probe
Target sequence in this assay (P35222 whole entry, one chain of several): as the sequence (P35222 whole entry, one chain of several) above

In order of falling IC50:
1. Ac-[αAllylPro]D[tBuAla][B5(5)][3Thi][TfeGA]AAFN[PyrS2″]D[Bta]Q-NH2 (staple 1-4, 4-11) [I-1001]  7220 nM
2. Ac-[αAllylPro]D[tBuAla][B5(5)]D[TfeGA]AIFN[PyrS2″][Phe(2-Cl)][Bta]Q-NH2 (staple 1-4, 4-11) [I-1005]  42 nM
3. Ac-[αAllylPro]D[tBuAla][B5(5)]D[TfeGA]AFFN[PyrS2″][Phe(2-Cl)][Bta]Q-NH2 (staple 1-4, 4-11) [I-1003]  38 nM
4. Ac-[αAllylPro]D[tBuAla][B5(18)]DNAAFS[PyrS2″][Phe(2-Cl)][Bta]Q-NH2 (staple 1-4, 4-11) [I-1018]  26 nM
5. Ac-[αAllylPro]D[tBuAla][B5(18)]DNAAFT[PyrS2″][Phe(2-Cl)][Bta]Q-NH2 (staple 1-4, 4-11) [I-1014]  19 nM
6. Ac-[αAllylPro]D[tBuAla][B5(18)]DDAAFT[PyrS2″][Phe(2-Cl)][Bta]Q-NH2 (staple 1-4, 4-11) [I-1013]  8 nM
7. Ac-[αAllylPro]D[tBuAla][B5(18)]D[TfeGA]AKFN[PyrS2″][Phe(2-Cl)][Bta]Q-NH2 (staple 1-4, 4-11) [I-1006]  5 nM

molecular target: full-length beta-Catenin (Uniprot ID P35222) (Homo sapiens (Human)) (UniProt P35222); experiment: fluorescence polarization competition; displacement of 5FAM-TCF4(10-53) from full-length beta-catenin
Target sequence in this assay (P35222 whole entry, one chain of several): as above

Work on Ac-[αAllylPro]DI[B5(4)]DEAA[2Thi]Q[S8]F[Bta]Q-NH2 (staple 1-4, 4-11) [I-485] yielded an EC50 of 34 nM.

molecular target: beta-catenin (Homo sapiens (Human)) (UniProt P35222); experiment: fluorescence polarization competition; full-length beta-catenin with 5FAM-TCF4(10-53) probe as competitor
Sequence (P35222 whole entry): as the sequence (P35222 whole entry, one chain of several) above

In the case of Ac-[αAllylPro]D[tBuAla][B5(4)]DLAAFL[PyrS2″][3Thi][Bta]Q-NH2 (staple 1-4, 4-11) [I-1444], the EC50 is reported as 6560 nM.

molecular target: full-length beta-Catenin (Uniprot ID P35222) (Homo sapiens (Human)) (UniProt P35222); experiment: as above
Target sequence in this assay (P35222 2-781 limits assumed): as the sequence (P35222 2-781 limits assumed) above

Binder Ac-[αAllylPro]DI[B5(4)]DEAA[2Thi]Q[S8]F[Bta]Q-NH2 (staple 1-4, 4-11) [I-485] has an IC50 of 34 nM.

molecular target: full-length beta-Catenin (Uniprot ID P35222) (Homo sapiens (Human)) (UniProt P35222); experiment: fluorescence polarization competition; full-length beta-catenin with 5FAM-labeled TCF4 (10-53) probe as competitor
Target sequence in this assay (P35222 whole entry, one chain of several): as the sequence (P35222 whole entry, one chain of several) above

In order of rising EC50:
1. Ac-[αAllylPro]D[tBuAla][B5(4)]D[Phe(3-COOH)]AAFS[PyrS2″][3Thi][Bta]Q-NH2 (staple 1-4, 4-11; also: earlier eluting HPLC staple isomer) [I-978]  112 nM
2. Ac-[αAllylPro]D[tBuAla][B5(4)]D[Phe(3-COOH)]AAFT[PyrS2″][3Thi][Bta]Q-NH2 (staple 1-4, 4-11; also: later eluting HPLC staple isomer) [I-981]  199 nM
3. Ac-[αAllylPro]D[tBuAla][B5(4)]D[Phe(3-COOH)]AAFT[PyrS2″][3Thi][Bta]Q-NH2 (staple 1-4, 4-11; also: earlier eluting HPLC staple isomer) [I-980]  221 nM
4. Ac-[αAllylPro]D[tBuAla][B5(4)]D[Phe(3-COOH)]AAFS[PyrS2″][3Thi][Bta]Q-NH2 (staple 1-4, 4-11; also: later eluting HPLC staple isomer) [I-979]  240 nM
5. Ac-[αAllylPro]D[tBuAla][B5(4)]D[EtGA]AAFS[PyrS2″][3Thi][Bta]S-NH2 (staple 1-4, 4-11; also: later eluting HPLC staple isomer) [I-975]  1710 nM
6. B1  1740 nM
7. Ac-[αAllylPro]D[tBuAla][B5(4)]D[EtGA]AAFS[PyrS2″][3Thi][Bta]S-NH2 (staple 1-4, 4-11; also: earlier eluting HPLC staple isomer) [I-974]  1780 nM
8. Ac-[αAllylPro]D[tBuAla][B5(25)]D[EtGA]AAFS[PyrS2″][3Thi][Bta]Q-NH2 (staple 1-4, 4-11; also: earlier-eluting HPLC staple isomer) [I-966]  2020 nM
9. B2  2320 nM
10. Ac-[αAllylPro]D[tBuAla][B5(25)]D[EtGA]AAFT[PyrS2″][3Thi][Bta]Q-NH2 (staple 1-4, 4-11; also: earlier-eluting HPLC staple isomer) [I-968]  2980 nM

molecular target: full-length beta-Catenin (Uniprot ID P35222) (Homo sapiens (Human)) (UniProt P35222); experiment: fluorescence polarization competition: peptide titrated against 10 nM full-length beta-catenin + 10 nM 5FAM-TCF4(10-53) probe
Target sequence in this assay (P35222 2-781 limits assumed): as the sequence (P35222 2-781 limits assumed) above

For Ac-[αAllylPro]F[tBuAla][B5]DDAADN[PyrS2][3Thi][Bta]H-NH2 (staple 1-4, 4-11) [I-796], the EC50 was 8140 nM.
